Measured values as given in PMC3874162 (Nucleic Acids Research, 2013).

Assays:
Cdc13-L91R = target: T1, Cdc13-L91R (Saccharomyces cerevisiae, UniProt P32797 1-924, L91R); test: EMSA
T1 sequence: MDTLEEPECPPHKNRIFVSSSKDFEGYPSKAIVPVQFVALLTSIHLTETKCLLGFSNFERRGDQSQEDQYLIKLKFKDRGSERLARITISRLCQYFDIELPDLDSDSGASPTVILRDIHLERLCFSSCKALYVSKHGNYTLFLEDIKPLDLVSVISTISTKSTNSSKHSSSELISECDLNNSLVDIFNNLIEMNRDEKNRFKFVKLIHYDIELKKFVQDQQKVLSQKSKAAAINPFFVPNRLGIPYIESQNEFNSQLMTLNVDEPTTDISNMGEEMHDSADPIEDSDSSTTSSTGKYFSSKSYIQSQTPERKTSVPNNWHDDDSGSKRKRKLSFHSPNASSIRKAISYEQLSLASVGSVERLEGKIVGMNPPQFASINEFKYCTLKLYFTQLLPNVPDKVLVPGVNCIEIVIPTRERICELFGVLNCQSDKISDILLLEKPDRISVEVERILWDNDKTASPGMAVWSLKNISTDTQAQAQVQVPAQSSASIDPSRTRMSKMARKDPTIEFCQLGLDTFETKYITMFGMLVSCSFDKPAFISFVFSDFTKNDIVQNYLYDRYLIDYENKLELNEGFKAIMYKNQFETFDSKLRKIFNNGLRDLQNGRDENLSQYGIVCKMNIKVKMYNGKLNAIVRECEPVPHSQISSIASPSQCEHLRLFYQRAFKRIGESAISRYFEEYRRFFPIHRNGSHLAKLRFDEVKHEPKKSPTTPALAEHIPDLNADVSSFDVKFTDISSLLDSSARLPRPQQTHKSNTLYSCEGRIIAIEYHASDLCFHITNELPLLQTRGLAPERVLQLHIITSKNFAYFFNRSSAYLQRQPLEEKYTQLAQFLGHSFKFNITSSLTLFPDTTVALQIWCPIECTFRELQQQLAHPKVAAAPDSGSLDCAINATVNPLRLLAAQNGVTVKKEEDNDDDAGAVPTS

Cdc13-DBD = target: T2, Cdc13-DBD (Saccharomyces cerevisiae, UniProt P32797 497-694); test: EMSA
T2 sequence: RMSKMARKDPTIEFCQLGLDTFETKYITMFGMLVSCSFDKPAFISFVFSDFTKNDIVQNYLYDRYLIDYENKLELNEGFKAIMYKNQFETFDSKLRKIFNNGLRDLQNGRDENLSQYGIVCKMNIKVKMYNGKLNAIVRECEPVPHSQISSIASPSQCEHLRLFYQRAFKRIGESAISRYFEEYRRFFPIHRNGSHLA

Cdc13-MOB-DBD = target: T3, Cdc13-MOB-DBD (Saccharomyces cerevisiae, UniProt P32797 344-694); test: EMSA
T3 sequence: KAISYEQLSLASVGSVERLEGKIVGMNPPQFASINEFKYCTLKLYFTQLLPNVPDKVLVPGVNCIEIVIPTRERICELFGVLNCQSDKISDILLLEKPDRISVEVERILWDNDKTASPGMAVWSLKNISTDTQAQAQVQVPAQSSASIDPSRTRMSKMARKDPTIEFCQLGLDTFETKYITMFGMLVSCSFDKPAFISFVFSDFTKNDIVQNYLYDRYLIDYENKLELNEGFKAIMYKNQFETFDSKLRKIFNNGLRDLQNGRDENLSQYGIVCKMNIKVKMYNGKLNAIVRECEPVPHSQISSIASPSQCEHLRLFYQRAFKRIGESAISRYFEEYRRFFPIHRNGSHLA

Cdc13-MOB = target: T4, Cdc13-MOB (Saccharomyces cerevisiae, UniProt P32797 344-496)
T4 sequence: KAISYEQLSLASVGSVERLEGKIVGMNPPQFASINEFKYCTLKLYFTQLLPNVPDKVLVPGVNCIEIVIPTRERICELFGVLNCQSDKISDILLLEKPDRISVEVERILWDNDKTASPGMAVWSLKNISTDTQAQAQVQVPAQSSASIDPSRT

With GTGTGGGTGTG (ssDNA) [Tel11] the Kd (Cdc13-L91R) was 5 ± 0.6 pM, the Kd (Cdc13-DBD) was 3.4 ± 0.5 pM and the Kd (Cdc13-MOB-DBD) was 2.3 ± 0.2 pM. GTGTGGGTGTG (ssDNA) [Tel11]: no binding (Cdc13-MOB).
